The target in this experiment is CD3 on Jurkat cells (Jurkat靶标细胞) (UniProt P07766). The experiment can be described thus: flow cytometry, culture supernatant on Jurkat cells.
UniProt P07766, sequence (P07766 23-207): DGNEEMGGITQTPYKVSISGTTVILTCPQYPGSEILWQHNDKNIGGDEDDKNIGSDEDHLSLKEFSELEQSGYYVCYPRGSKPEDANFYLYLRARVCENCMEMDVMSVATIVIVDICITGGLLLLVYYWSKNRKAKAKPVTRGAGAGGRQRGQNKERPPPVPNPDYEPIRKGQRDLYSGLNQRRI

B1: A30322 抗CD3单域抗体 (sdAb) (VHH, not shown: large carriers)
VHH: EVQLVECGGGLVQAGGSLRLSCAASGRTFDTMGWFRQAPGKEREFVAAVRWSSGNTYYGNTVKGRFTISRDTATNTVYLEMNSLKHEDTAVYYCAARLAGRGAADHWGQGTQVTVSS
The molecule B1 yielded a 结合MFI of 521 MFI.

The values are drawn from patent publication CN106117361A.
